{"source": "IntAct's records for PubMed 33053355", "parents": {"B1": {"name": "GRB10-interacting GYF protein 1 (Homo sapiens), O75420 (parent)", "chain": "MAAETLNFGPEWLRALSGGGSVASPPPSPAMPKYKLADYRYGREEMLALYVKENKVPEELQDKEFAAVLQDEPLQPLALEPLTEEEQRNFSLSVNSVAVLRLMGKGAGPPLAGTSRGRGSTRSRGRGRGDSCFYQRSIEEGDGAFGRSPREIQRSQSWDDRGERRFEKSARRDGARCGFEEGGAGPRKEHARSDSENWRSLREEQEEEEEGSWRLGAGPRRDGDRWRSASPDGGPRSAGWREHGERRRKFEFDLRGDRGGCGEEEGRGGGGSSHLRRCRAPEGFEEDKDGLPEWCLDDEDEEMGTFDASGAFLPLKKGPKEPIPEEQELDFQGLEEEEEPSEGLEEEGPEAGGKELTPLPPQEEKSSSPSPLPTLGPLWGTNGDGDETAEKEPPAAEDDIRGIQLSPGVGSSAGPPGDLEDDEGLKHLQQEAEKLVASLQDSSLEEEQFTAAMQTQGLRHSAAATALPLSHGAARKWFYKDPQGEIQGPFTTQEMAEWFQAGYFSMSLLVKRGCDEGFQPLGEVIKMWGRVPFAPGPSPPPLLGNMDQERLKKQQELAAAALYQQLQHQQFLQLVSSRQLPQCALREKAALGDLTPPPPPPPQQQQQQLTAFLQQLQALKPPRGGDQNLLPTMSRSLSVPDSGRLWDVHTSASSQSGGEASLWDIPINSSTQGPILEQLQLQHKFQERREVELRAKREEEERKRREEKRRQQQQEEQKRRQEEEELFRRKHVRQQELLLKLLQQQQAVPVPPAPSSPPPLWAGLAKQGLSMKTLLELQLEGERQLHKQPPPREPARAQAPNHRVQLGGLGTAPLNQWVSEAGPLWGGPDKSGGGSSGLGLWEDTPKSGGSLVRGLGLKNSRSSPSLSDSYSHLSGRPIRKKTEEEEKLLKLLQGIPRPQDGFTQWCEQMLHTLSATGSLDVPMAVAILKEVESPYDVHDYIRSCLGDTLEAKEFAKQFLERRAKQKASQQRQQQQEAWLSSASLQTAFQANHSTKLGPGEGSKAKRRALMLHSDPSILGYSLHGSSGEIESVDDY", "partner": "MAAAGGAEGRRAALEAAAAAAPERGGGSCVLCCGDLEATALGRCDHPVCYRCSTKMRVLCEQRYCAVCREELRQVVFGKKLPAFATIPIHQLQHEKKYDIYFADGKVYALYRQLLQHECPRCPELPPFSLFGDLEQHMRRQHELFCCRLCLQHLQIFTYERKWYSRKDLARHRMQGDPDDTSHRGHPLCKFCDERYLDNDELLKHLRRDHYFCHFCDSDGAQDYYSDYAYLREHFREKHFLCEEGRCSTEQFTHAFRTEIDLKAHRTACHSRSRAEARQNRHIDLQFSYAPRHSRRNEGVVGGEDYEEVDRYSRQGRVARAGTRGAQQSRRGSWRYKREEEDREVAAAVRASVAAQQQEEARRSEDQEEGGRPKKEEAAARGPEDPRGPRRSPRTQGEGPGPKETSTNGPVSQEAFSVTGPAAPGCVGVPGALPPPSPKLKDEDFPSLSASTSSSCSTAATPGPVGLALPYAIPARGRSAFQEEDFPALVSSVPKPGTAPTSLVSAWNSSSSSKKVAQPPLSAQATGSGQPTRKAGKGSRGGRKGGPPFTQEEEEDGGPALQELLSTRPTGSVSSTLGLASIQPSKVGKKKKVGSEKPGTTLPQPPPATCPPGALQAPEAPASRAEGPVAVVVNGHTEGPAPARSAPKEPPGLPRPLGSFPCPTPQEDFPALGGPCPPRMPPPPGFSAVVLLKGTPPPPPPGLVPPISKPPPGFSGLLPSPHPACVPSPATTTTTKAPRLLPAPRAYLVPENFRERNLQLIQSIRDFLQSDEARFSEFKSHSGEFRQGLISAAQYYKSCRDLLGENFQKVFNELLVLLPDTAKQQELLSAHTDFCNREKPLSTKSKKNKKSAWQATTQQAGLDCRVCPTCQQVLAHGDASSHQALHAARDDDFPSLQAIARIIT"}, "B2": {"name": "GRB10-interacting GYF protein 2 (Homo sapiens), Q6Y7W6-1 (parent)", "chain": "MAAETQTLNFGPEWLRALSSGGSITSPPLSPALPKYKLADYRYGREEMLALFLKDNKIPSDLLDKEFLPILQEEPLPPLALVPFTEEEQRNFSMSVNSAAVLRLTGRGGGGTVVGAPRGRSSSRGRGRGRGECGFYQRSFDEVEGVFGRGGGREMHRSQSWEERGDRRFEKPGRKDVGRPNFEEGGPTSVGRKHEFIRSESENWRIFREEQNGEDEDGGWRLAGSRRDGERWRPHSPDGPRSAGWREHMERRRRFEFDFRDRDDERGYRRVRSGSGSIDDDRDSLPEWCLEDAEEEMGTFDSSGAFLSLKKVQKEPIPEEQEMDFRPVDEGEECSDSEGSHNEEAKEPDKTNKKEGEKTDRVGVEASEETPQTSSSSARPGTPSDHQSQEASQFERKDEPKTEQTEKAEEETRMENSLPAKVPSRGDEMVADVQQPLSQIPSDTASPLLILPPPVPNPSPTLRPVETPVVGAPGMGSVSTEPDDEEGLKHLEQQAEKMVAYLQDSALDDERLASKLQEHRAKGVSIPLMHEAMQKWYYKDPQGEIQGPFNNQEMAEWFQAGYFTMSLLVKRACDESFQPLGDIMKMWGRVPFSPGPAPPPHMGELDQERLTRQQELTALYQMQHLQYQQFLIQQQYAQVLAQQQKAALSSQQQQQLALLLQQFQTLKMRISDQNIIPSVTRSVSVPDTGSIWELQPTASQPTVWEGGSVWDLPLDTTTPGPALEQLQQLEKAKAAKLEQERREAEMRAKREEEERKRQEELRRQQEEILRRQQEEERKRREEEELARRKQEEALRRQREQEIALRRQREEEERQQQEEALRRLEERRREEEERRKQEELLRKQEEEAAKWAREEEEAQRRLEENRLRMEEEAARLRHEEEERKRKELEVQRQKELMRQRQQQQEALRRLQQQQQQQQLAQMKLPSSSTWGQQSNTTACQSQATLSLAEIQKLEEERERQLREEQRRQQRELMKALQQQQQQQQQKLSGWGNVSKPSGTTKSLLEIQQEEARQMQKQQQQQQQHQQPNRARNNTHSNLHTSIGNSVWGSINTGPPNQWASDLVSSIWSNADTKNSNMGFWDDAVKEVGPRNSTNKNKNNASLSKSVGVSNRQNKKVEEEEKLLKLFQGVNKAQDGFTQWCEQMLHALNTANNLDVPTFVSFLKEVESPYEVHDYIRAYLGDTSEAKEFAKQFLERRAKQKANQQRQQQQLPQQQQQQPPQQPPQQPQQQDSVWGMNHSTLHSVFQTNQSNNQQSNFEAVQSGKKKKKQKMVRADPSLLGFSVNASSERLNMGEIETLDDY", "partner": "B1 partner"}, "B3": {"name": "GRB10-interacting GYF protein 2 (Homo sapiens), Q6Y7W6-1 (parent)", "chain": "B2 chain"}}}
{"variants_of": "B1", "details": "with zn598_human ZNF598, Q86UK7"}
{"variant": "Y479A;F490A;W498A;F504A", "effect of a mutation on the interaction": "disrupting interaction strength"}
{"variants_of": "B2", "details": "with zn598_human ZNF598, Q86UK7"}
{"variant": "Y538A;F549A;W557A;F563A", "effect of a mutation on the interaction": "disrupting interaction strength"}
{"variants_of": "B3", "details": "with EIF4E2, O60573-1"}
{"variant": "Y41A;Y43A;M48A;L49A", "effect of a mutation on the interaction": "disrupting interaction strength"}
{"variant": "W288A;F300A;F306A", "effect of a mutation on the interaction": "with no effect"}
{"variant": "Y538A;F549A;W557A;F563A", "effect of a mutation on the interaction": "with no effect"}
{"variants_of": "B3", "details": "with rl22l_human RPL22L1, Q6P5R6"}
{"variant": "Y538A;F549A;W557A;F563A", "effect of a mutation on the interaction": "with no effect"}
